The text below walks through data of the supplement of paper PMC10567573.

B1: KLHL13 (parent)
chain: GVSKVGLRKIIDFIYTAKLSLNMD
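Further: lentivirally expressed fusions sorted by FACS into six bins by GFP to DsRed ratio, PSI derived from sequencing read proportions per bin multiplied by bin number.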

Variants of B1 are the subject of this data set. In words: protein stability index of a GFP-peptide fusion (GPS, HEK-293T) (PSI 1-6); higher = more stable. The settings on record: c terminus: a fixed tail appended.
Take GVSKVGLRKIIDFIYTAQLSLNMD [K18Q]: the protein stability index came out at 3.22. Next, GVSKVGLRKIIDFIYTAPLSLNMD [K18P]: 2.89; GVSKVGLRKIIDFIYTAMLSLNMD [K18M]: 2.52; GVSKVGLRKIIDFIYTATLSLNMD [K18T]: 2.15. For GVSKVGLRKIIDFIYTANLSLNMD [K18N], the protein stability index worked out at 2.17. Next, GVSKVGLRKIIDFIYTAHLSLNMD [K18H]: 2.72; GVSKVGLRKIIDFIYTARLSLNMD [K18R]: 2.63; GVSKVGLRKIIDFIYTAWLSLNMD [K18W]: 2.7. For GVSKVGLRKIIDFIYTAYLSLNMD [K18Y] the value was 2.88. Next, GVSKVGLRKIIDFIYTACLSLNMD [K18C]: 2.46; GVSKVGLRKIIDFIYTASLSLNMD [K18S]: 3.44.

With GVSKVGLRKIIDFIYTAGLSLNMD [K18G], the protein stability index is 2.55. For GVSKVGLRKIIDFIYTALLSLNMD [K18L] the value was 1.76; for GVSKVGLRKIIDFIYTAKLSLDMD [N22D], 2.3; for GVSKVGLRKIIDFIYTAKLSLPMD [N22P], 4.34. For GVSKVGLRKIIDFIYTAKLSLEMD [N22E] the value was 2.73; for GVSKVGLRKIIDFIYTAKLSLYMD [N22Y], 1.99.

Regarding GVSKVGLRKIIDFIYTAKLSLRMD [N22R], the protein stability index is 2.09.

As for GVSKVGLRKIIDFIYTAKLSLQMD [N22Q], the protein stability index amounted to 1.9. For GVSKVGLRKIIDFIYTAKLSLWMD [N22W] the value was 1.31; for GVSKVGLRKIIDFIYTAKLSLHMD [N22H], 2.41; for GVSKVGLRKIIDFIYTAKLSLLMD [N22L], 2.11.

In the case of GVSKVGLRKIIDFIYTAKLSLMMD [N22M], the protein stability index stood at 2.26. For GVSKVGLRKIIDFIYTAKLSLIMD [N22I] the value was 2.68; for GVSKVGLRKIIDFIYTAKLSLVMD [N22V], 1.32. For GVSKVGLRKIIDFIYTAKLSLFMD [N22F] the value was 3.75; for GVSKVGLRKIIDFIYTAKLSLAMD [N22A], 3.65. For GVSKVGLRKIIDFIYTAKLSLSMD [N22S] the value was 2.36. As to GVSKVGLRKIIDFIYTGKLSLNMD [A17G], the protein stability index came out at 3.4. Next, GVSKVGLRKIIDFIYTKKLSLNMD [A17K]: 2.73. Next, GVSKVGLRKIIDFIYTEKLSLNMD [A17E]: 1.81. As to GVSKVGLRKIIDFIYTRKLSLNMD [A17R], the protein stability index turned out to be 2.95. For the variant GVSKVGLRKIIDFIYTSKLSLNMD [A17S], the protein stability index is 1.75. Next, GVSKVGLRKIIDFIYTPKLSLNMD [A17P]: 2.39. Regarding GVSKVGLRKIIDFIYTVKLSLNMD [A17V], the protein stability index was 1.56. Next, GVSKVGLRKIIDFIYTYKLSLNMD [A17Y]: 3.45; GVSKVGLRKIIDFIYTWKLSLNMD [A17W]: 3.08; GVSKVGLRKIIDFIYTAKLSLNMY [D24Y]: 2.2. Take GVSKVGLRKIIDFIYTAKLSLNMG [D24G]: the protein stability index is 3.65. For GVSKVGLRKIIDFIYTAKLSLNMK [D24K], the protein stability index is 1.71. Next, GVSKVGLRKIIDFIYTAKLSLNMP [D24P]: 2.88; GVSKVGLRKIIDFIYTAKLSLNMR [D24R]: 3.43. Next, GVSKVGLRKIIDFIYTAKLSLNMT [D24T]: 3.01; GVSKVGLRKIIDFIYTAKLSLNMV [D24V]: 2.49. Turning to GVSKVGLRKIIDFIYTAKLSLNMM [D24M], the protein stability index stood at 2.28. Take GVSKVGLRKIIDFIYTAKLSLNMF [D24F]: the protein stability index amounted to 2.82.

Take GVSKVGLRKIIDFIYTAKLSLNMH [D24H]: the protein stability index was found to be 3.01. Next, GVSKVGLRKIIDFIYTAKLSLNMA [D24A]: 3.2; GVSKVGLRKIIDFIYTAKLSLNMN [D24N]: 2.74; GVSKVGLRKIIDFIYTAKLSLNML [D24L]: 2.01. Next, GVSKVGLRKIIDFIYTAKLSLNMQ [D24Q]: 2.15; GVSKVGLRKIIDFIYTAKCSLNMD [L19C]: 2.34; GVSKVGLRKIIDFIYTAKHSLNMD [L19H]: 1.87.

Take GVSKVGLRKIIDFIYTAKTSLNMD [L19T]: the protein stability index came out at 2.95. For the variant GVSKVGLRKIIDFIYTAKSSLNMD [L19S], the protein stability index amounted to 1.63. Next, GVSKVGLRKIIDFIYTAKQSLNMD [L19Q]: 2.21.

Consider GVSKVGLRKIIDFIYTAKDSLNMD [L19D], for which the protein stability index is 1.36. Next, GVSKVGLRKIIDFIYTAKNSLNMD [L19N]: 3.62.

Consider GVSKVGLRKIIDFIYTAKWSLNMD [L19W], for which the protein stability index is 2.93.

On to GVSKVGLRKIIDFIYTAKVSLNMD [L19V], for which the protein stability index came out at 3.11. GVSKVGLRKIIDFIYMAKLSLNMD [T16M]: the protein stability index was 1.95. For GVSKVGLRKIIDFIYHAKLSLNMD [T16H] the value was 1.63; for GVSKVGLRKIIDFIYGAKLSLNMD [T16G], 2.86. Take GVSKVGLRKIIDFIYVAKLSLNMD [T16V]: the protein stability index is 1.81. In the case of GVSKVGLRKIIDFIYYAKLSLNMD [T16Y], the protein stability index was 2.74. For GVSKVGLRKIIDFIYRAKLSLNMD [T16R] the value was 2.69; for GVSKVGLRKIIDFIYWAKLSLNMD [T16W], 1.79; for GVSKVGLRKIIDFIYPAKLSLNMD [T16P], 2.57.

In the case of GVSKVGLRKIIDFIYEAKLSLNMD [T16E], the protein stability index was found to be 1.95. Next, GVSKVGLRKIIDFIYIAKLSLNMD [T16I]: 2.72; GVSKVGLRKIIDFIPTAKLSLNMD [Y15P]: 1.84. For GVSKVGLRKIIDFITTAKLSLNMD [Y15T] the value was 2.52; for GVSKVGLRKIIDFIMTAKLSLNMD [Y15M], 2.48. Next, GVSKVGLRKIIDFIRTAKLSLNMD [Y15R]: 4.12; GVSKVGLRKIIDFIQTAKLSLNMD [Y15Q]: 1.36; GVSKVGLRKIIDFINTAKLSLNMD [Y15N]: 4.89. As to GVSKVGLRKIIDFIYTAKLSWNMD [L21W], the protein stability index is 1.96. For GVSKVGLRKIIDFIYTAKLSNNMD [L21N] the value was 1.83; for GVSKVGLRKIIDFIYTAKLSENMD [L21E], 1.53.

As for GVSKVGLRKIIDFIYTAKLSQNMD [L21Q], the protein stability index was found to be 3.01. As to GVSKVGLRKIIDFIYTAKLSANMD [L21A], the protein stability index amounted to 1.94. For the variant GVSKVGLRKIIDFIYTAKLSPNMD [L21P], the protein stability index amounted to 1.86. Turning to GVSKVGLRKIIDFIYTAKLSSNMD [L21S], the protein stability index worked out at 2.72.

Consider GVSKVGLRKIIDFIYTAKLSDNMD [L21D], for which the protein stability index came out at 1.8. For GVSKVGLRKIIDFIYTAKLSCNMD [L21C], the protein stability index came to 2.69.

As to GVSKVGLRKIIDFIYTAKLSFNMD [L21F], the protein stability index was 2.21.

GVSKVGLRKIIDFIYTAKLSLNAD [M23A]: the protein stability index was found to be 2.48. Next, GVSKVGLRKIIDFIYTAKLSLNQD [M23Q]: 1.55; GVSKVGLRKIIDFIYTAKLSLNSD [M23S]: 1.79; GVSKVGLRKIIDFIYTAKLSLNGD [M23G]: 3.36. For GVSKVGLRKIIDFIYTAKLSLNYD [M23Y] the value was 3.73; for GVSKVGLRKIIDFIYTAKLSLNND [M23N], 1.53.

For GVSKVGLRKIIDFIYTAKLSLNKD [M23K], the protein stability index was 1. Next, GVSKVGLRKIIDFIYTAKLSLNHD [M23H]: 3.04.
